US7211422B2, “Polypeptide having α-isomaltosylglucosaccharide synthase activity” (Kabushiki Kaisha Hayashibara Seibutsu Kagaku Kenkyujo, priority 2001, dated 2007)

B1: Enzyme of Strain N75: purified polypeptide having α-isomaltosylglucosaccharide-forming enzyme activity from Bacillus globisporus N75 (Experiment 2-3); contains SEQ ID NO: 2 (protein)
chain: HVSALGNLLSSAVTGDTLTLTIDNGAEPNDDILVLQAVQNGILKVDYRPNGVAPSADTPMLDPNKTWPSIGAVINTASNPMTITTPAMKIEIAKNPVRLTVKKPDGTALLWEPPTGGVFSDGVRFLHGTGDNMYGIRSFNAFDSGGDLLRNSSTQAARAGDQGNSGGPLIWSTAGYGVLVDSDGGYPFTDEATGKLEFYYGGTPPEGRRYTKQDVEYYIMLGTPKEIMSGVGEITGKPPMLPKWSLGFMNFEWDLNEAELKNHVDTYRAKNIPIDGYAIDFDWKKYGENNYGEFAWNTANFPSAATTALKSQMDAKGIKMIGITKPRIATKDFSNNPTVQGTDAASGGYFYPGHSEYKDYFIPVFVRSIDPYNPAARSWFWNHSKDAFDKGIVGWWNDETDAVSSGGASYWFGNFTTGHMSQALYEGQRAYTSNAQRVWQTARTFYPGAQRYATTLWSGDIGIQYTKGERINWAAGMQEQRAVMLSSINNGQVKWGMDTGGFNQQDGTTNNPNPDLYARWMQFSALTPVFRVHGNNHQQRQPWYYGSTAEEASKEALQLRYSLIPYMYAYERSAYENGNGLVRPLMQEYPADANAKNYLDAWMFGDWLLAAPVVEKQQTSKEIYLPAGTWIDYNRGTVLTGGQKISYAVNPDTLTDIPLFIKKGAIIPSQKVQDYVGQAPVQTVDVDVFPNTAQSSFTYYDDDGSSYNYESGAYFKQLMTAQDNGSGALSFTLGAKTGTYSPALQSYIVKLHGAAGASVTSNGAALASYASLQALKASASEGWAKGKDIYGDVTYVKLSAGAAAAKAIAVTGNSPVSVADVQYEAEEASLSGNTTATKATVNTNHAGYTGSGFVDGLSNPGAAVTFYPKVKTGGDYNVSLRYANSTGAAKSVSIFVNGKRVKSTSLANLPNWDTWGTQAETLPLTAGTNVVTYKFYSDAGDTGSVNLDNITVPFAPAIGKYEAESAELSGGSTVNQNHWFYSGTAFVDGLTAPGAQVKYTVNAPAAGSYQIALRYANGTGAAKTLSTYVNGTKLGQTAFASPGGNWNVWQDSVQTVALAAGTNTIAFKYDAGDSGSGSVNLDRLLLSAAAPGVPVSEQNLLDNGGFERDPSQSSNWTEWHPASQAIAYGIDSGSGMNPPESPWAGDKRAYFYAAGPYQQSIHQTVSVPVNNAKYKFEAWVLLKNTTPTTARVEIQNYGGSPIFTNISKDGVWKYISVSDIQVTNGQIDIGFYVDSPGGTTLHIDDVRVTKQ
modifications: Bacillus globisporus N75
B2: Enzyme of Strain C11: purified polypeptide having α-isomaltosylglucosaccharide-forming enzyme activity from Bacillus globisporus C11 (Experiment 1-3); contains SEQ ID NO: 1 (protein)
chain: YVSSLGNLISSSVTGDTLTLTVDNGAEPSDDLLIVQAVQNGILKVDYRPNSITPSAKTPMLDPNKTWSAVGATINTTANPMTITTSNMKIEITKNPVRMTVKKADGTTLFWEPSGGGVFSDGVRFLHATGDNMYGIRSFNAFDSGGDLLRNSSNHAAHAGEQGDSGGPLIWSTAGYGLLVDSDGGYPYTDSTTGQMEFYYGGTPPEGRRYAKQNVEYYIMLGTPKEIMTDVGEITGKPPMLPKWSLGFMNFEWDTNQTEFTNNVDTYRAKNIPIDAYAFDYDWKKYGETNYGEFAWNTTNFPSASTTSLKSTMDAKGIKMIGITKPRIVTKDASANVTTQGTDATNGGYFYPGHNEYQDYFIPVTVRSIDPYNANERAWFWNHSTDALNKGIVGWWNDETDKVSSGGALYWFGNFTTGHMSQTMYEGGRAYTSGAQRVWQTARTFYPGAQRYATTLWSGDIGIQYNKGERINWAAGMQEQRAVMLSSVNNGQVKWGMDTGGFNQQDGTTNNPNPDLYARWMQFSALTPVFRVHGNNHQQRQPWYFGSTAEEASKEAIQLRYSLIPYMYAYERSAYENGNGLVRPLMQAYPTDAAVKNYTDAWMFGDWLLAAPVVDKQQTSKDIYLPSGSWIDYARGNAITGGQTIRYSVNPDTLTDMPLFIKKGAIIPTQKVQDYVGQASVTSVDVDVFPDTTQSSFTYYDDDGASYNYESGTYFKQNMTAQDNGSGSLSFTLGAKSGSYTPALQSYIVKLHGSAGTSVTNNSAAMTSYASLEALKAAAGEGWATGKDIYGDVTYVKVTAGTASSKSIAVTGVAAVSATTSQYEAEDASLSGNSVAAKASINTNHTGYTGTGFVDGLGNDGAGVTFYPKVKTGGDYNVSLRYANASGTAKSVSIFVNGKRVKSTSLANLANWDTWSTQSETLPLTAGVNVVTYKYYSDAGDTGNVNIDNITVPFAPIIGKYEAESAELSGGSSLNTNHWYYSGTAFVDGLSAVGAQVKYNVNVPSAGSYQVALRYANGSAATKTLSTYINGAKLGQTSFTSPGTNWNVWQDNVQTVTLNAGANTIAFKYDAADSGNINVDRLLLSTSAAGTPVSEQNLLDNPGFERDTSQTNNWIEWHPGTQAVAFGVDSGSTTNPPESPWSGDKRAYFFAAGAYQQSIHQTISVPVNNVKYKFEAWVRMKNTTPTTARAEIQNYGGSAIYANISNSGVWKYISVSDIMVTNGQIDVGFYVDSPGGTTLHIDDVRVTKQ
modifications: Bacillus globisporus C11

Assays:
[1] = Test on reducing-power formation; type: biochemical; conditions: 1% (w/v) maltotetraose, 0.25 unit/g substrate, 35° C., pH 6.0 (pH 8.4 for A19)
Protocol: The following test was carried out to study whether the polypeptide having α-isomaltosylglucosaccharide-forming enzyme activity had the ability of forming reducing-power or not. To a 1% (w/v) aqueous solution of maltotetraose as a substrate was added 0.25 unit/g substrate, d.s.b., of either of purified polypeptide specimen of α-isomaltosylglucosaccharide-forming enzyme from Bacillus globisporus C11 obtained by the method in Experiment 1-3, Bacillus globisporus N75 obtained by the method in Experiment2-3, or Arthrobacter globiformis A19 obtained by the method in Experiment 3-3, and incubated at 35° C. and at pH 6.0, except that pH 8.4 was used for the enzyme from Arthrobacter globiformis A19. During the reaction, a portion of each reaction mixture was sampled at prescribed time intervals and measured for reducing power after keeping at 100° C. for 10 minutes to stop the enzymatic reaction. Before and after the enzymatic reaction, the reducing sugar content and total sugar content were respectively quantified by the Somogyi-Nelson method and anthrone-sulfuric acid method. The percentage of forming reducing power was calculated by the following equation: Percentage of forming reducing power (%)=(AR/AT−BR/BT)×100 Equation: • AR: Reducing sugar content after enzymatic reaction. • AT: Total sugar content after enzymatic reaction. • BR: Reducing sugar content before enzymatic reaction. • BT: Total sugar content before enzymatic reaction.

[2] = Isoelectric point by isoelectrophoresis (2% ampholine gel); type: physicochemical; conditions: gel containing 2% (w/v) ampholine
Source text: Purified specimens of the polypeptide having α-isomaltosylglucosaccharide-forming enzyme activity from Bacillus globisporus C11 obtained by the method in Experiment 1-3, Bacillus globisporus N75 obtained by the method in Experiment 2–3, and Arthrobacter globiformis A19 obtained by the method in Experiment 3-3 were subjected to isoelectrophoresis using a gel containing 2% (w/v) ampholine commercialized by Amersham Biosciences K. K., Tokyo, Japan (old name, Amersham Pharmacia Biotech), and then measured pHs of protein bands and gel to determine their isoelectric points.

[3] = Effect of temperature and pH on α-isomaltosylglucosaccharide-forming enzyme activity; type: biochemical; conditions: for Optimum temperature: pH 6.0 for 60 minutes; for Optimum pH: incubated at 35° C. for 60 minutes
Protocol: The two types of enzymatic activities described above were measured as following. The activity of α-isomaltosylglucosaccharide-forming enzyme was measured by the following assay: A substrate solution was prepared by dissolving maltotriose in 100 mM acetate buffer (pH 6.0) to give a concentration of 2% (w/v). A reaction mixture was prepared by mixing 0.5 ml of the substrate solution and 0.5 ml of an enzyme solution, and incubated at 35° C. for 60 minutes. After stopping the reaction by boiling for 10 minutes, the amount of maltose formed in the reaction mixture was determined by high-performance liquid chromatography (HPLC). One unit of α-isomaltosylglucosaccharide-forming activity was defined as the amount of the enzyme that forms one μmole of maltose per minute under the above conditions. HPLC was carried out using “SHODEX KS-801 column”, Showa Denko K. K., Tokyo, Japan, at a column temperature of 60° C. and a flow rate of 0.5 ml/minutes of water, and using “RI-8012”, a differential refractometer commercialized by Tosoh Corporation, Tokyo, Japan.
The effect of temperature and pH on the α-isomaltosylglucosaccharide-forming enzyme activity was examined in accordance with the assay for the α-isomaltosylglucosaccharide-forming enzyme activity under various temperature and pH conditions. The effect of temperature was conducted in the presence or absence of 1 mM Ca^2+. […] The optimum temperature of the polypeptide having α-isomaltosylglucosaccharide-forming enzyme activity from a strain C11 was about 45° C. (in the absence of Ca^2+) and about 50° C. (in the presence of Ca^2+) when incubated at pH 6.0 for 60 minutes, and the optimum pH was about 6.0 when incubated at 35° C. for 60 minutes. The optimum temperature of the polypeptide having α-isomaltosylglucosaccharide-forming enzyme activity from a strain N75 was about 50° C. (in the absence of Ca^2+) and about 55° C. (in the presence of Ca^2+) when incubated at pH 6.0 for 60 minutes, and the optimum pH was about 6.0 when incubated at 35° C. for 60 minutes. The optimum temperature of the polypeptide having α-isomaltosylglucosaccharide-forming enzyme activity from a strain A19 was about 60° C. (in the absence of Ca^2+) and about 65° C. (in the presence of Ca^2+) when incubated at pH 8.4 for 60 min, and the optimum pH was about 8.4 when incubated at 35° C. for 60 minutes.

[4] = Thermal stability and pH stability (residual enzyme activity); type: physicochemical; conditions: 20 mM acetate buffer pH 6.0, 60 minutes
Protocol: The thermal stability of the polypeptide having α-isomaltosylglucosaccharide-forming enzyme activity was determined by incubating the testing polypeptide solution in 20 mM acetate buffer, pH6.0 (in the case of the polypeptide from a strain A19, 20 m M Glycine-NaOH buffer, pH 8.0) at prescribed temperatures for 60 minutes in the presence or absence of 1 mM Ca^2+, cooling with water the resulting polypeptide solutions, and assaying the residual enzyme activity of each solution. The pH stability of the polypeptide having α-isomaltosylglucosaccharide-forming enzyme activity was determined by keeping the testing polypeptide solutions in 50 mM buffer having prescribed pHs at 4° C. for 24 hours, adjusting the pH of each solution to 6.0 (in the case of the polypeptide from a strain A19, pH 8.0), and assaying the residual enzyme activity of each solution. […] The thermal stability of the polypeptide having α-isomaltosylglucosaccharide-forming enzyme activity from a strain C11 was up to about 40° C. (in the absence of Ca^2+) and about 45° C. (in the presence of Ca^2+), and pH stability of about 5.0 to about 10.0. The thermal stability of the polypeptide having α-isomaltosylglucosaccharide-forming enzyme activity from a strain N75 was up to about 45° C. (in the absence of Ca^2+) and about 50° C. (in the presence of Ca^2+), and pH stability of about 5.0 to about 9.0. The thermal stability of the polypeptide having α-isomaltosylglucosaccharide-forming enzyme activity from a strain A19 was up to about 55° C. (in the absence of Ca^2+) and about 60° C. (in the presence of Ca^2+), and pH stability of about 5.0 to about 9.0.

Row | Molecule | Percentage of forming reducing power ([1]; reaction time 0 hour) | Percentage of forming reducing power ([1]; reaction time 1 hour) | Percentage of forming reducing power ([1]; reaction time 2 hours) | Percentage of forming reducing power ([1]; reaction time 4 hours) | Percentage of forming reducing power ([1]; reaction time 8 hours) | Isoelectric point [2] | Optimum temperature ([3]; in the absence of Ca2+) | Optimum temperature ([3]; in the presence of 1 mM Ca2+) | Optimum pH [3] | Thermal stability ([4]; in the presence of 1 mM Ca2+) | Thermal stability ([4]; in the absence of Ca2+)
1 | B1 | 0.0% | 0.1% | 0.0% | 0.0% | 0.1% | about 7.3±0.5 | about 50 °C | about 55 °C | about 6.0 | ≤ 50 °C | 
2 | B2 | 0.0% | 0.1% | 0.0% | 0.1% | 0.0% | about 5.2±0.5 | about 45 °C | about 50 °C | about 6.0 |  | up to 40 °C
